Measured values reported in publication PMC314469, “Protein Interaction Networks by Proteome Peptide Scanning” (PLoS Biology, 2004).

T1: amphyphisin SH3 (AMPH_HUMAN), P49418
T1 chain: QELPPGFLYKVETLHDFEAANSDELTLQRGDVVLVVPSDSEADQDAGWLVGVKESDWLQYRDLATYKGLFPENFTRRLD


Tests used:
[1] = biological target: T1, amphyphisin SH3 (AMPH_HUMAN), P49418; assay: SPOT array
[2] = biological target: endophilin SH3 (SH3G2_HUMAN), Q99962; assay: SPOT array

Binder	normalised SPOT signal, Boehringer light units (BLU); mean over the file's lines of this peptide [1]	normalised SPOT signal, Boehringer light units (BLU); mean over the file's lines of this peptide [2]
QRKNLRRPPSIKGW [Q9NYL5 22-35]	25.3	57.6
QRQRPPRPPPRGTP [Q8WTU5 20-34]	8800	11000
QSSPPQRPPAPASP [BAC05814 18-32]	49.9	4000
QSISLRRPRLASQS [Q9UBH6 665-678]	56.1	208
QSLKIRRPHDYQPL [P26368 222-235]	37.5	93.1
QSTNPKRPLSSANQ [P35670 228-241]	35.1	94.2
QVDPPERPPPPPSD [Q9H292 194-208]	43.2	275
QVDPPERPPSPPSD [Q9H4B3 193-207]	92.2	326
ATDLPKKPPPPEVT [Q96QH2 123-137]	68.1	46.8
QVEKLRRPEGASNE [O75381 360-373]	40.3	64.7
QVFLPPRPPKVLGL [Q9Y3F0 251-265]	1150	2710
QVIGPHRPPELHDR [P20813 329-343]	66.4	82.5
QVIHPPRPPKVLGL [P39194 572-585]	117	423
QVILPPRPPKVLGL [P39188 470-484]	936	5000
QVIRPPRPPKVLGL [P39193 571-585]	8910	14600
QVKDIRRPERRHSD [Q9UI45 1886-1899]	534	123
QVMVIKRPGRKRKA [P51608 244-257]	1620	240
QVNHLKRPVSGVGD [Q92610 1091-1104]	42.5	0
QVVGPHRPPALDDR [Q14097 329-343]	60.7	43.1
ATDSPRRPSRSTGG [Q9H6U6 6-19]	11300	472
QVYVLKRPHVDEFL [O15194 206-219]	19.5	58.8

Binder	normalised SPOT signal, Boehringer light units (BLU); mean over the file's lines of this peptide [1]	normalised SPOT signal, Boehringer light units (BLU); mean over the file's lines of this peptide [2]
QVYVLKRPYVDEFL [O14595 137-150]	6.6	28.4
QYGFPRRPPPRGSQ [Q9BQH3 166-180]	3010	2120
QYNFLRRPQRMPVS [Q9BZC7 2011-2024]	1220	764
QYRSLPRPAKSSSM [Q9H9S9 177-190]	220	764
AASSPARPPGLQRS [Q9BQ89 173-187]	136	3950
RAASLRRPRRAASR [Q8WYB4 11-24]	80.1	72.5
RADIPKRPSYVAPL [Q9Y2F3 1400-1413]	47.6	1460
RAEVPTKPPLPPAR [Q9UKM7 224-238]	8090	2440
RAITFRRPSRVHYY [Q96RS3 192-205]	708	33.9
RAPPPSRPPPRPSV [Q9H6X2 550-564]	4340	11000
ATFSLRRPWTEAGA [P20800 107-120]	20.7	61.3
RAPRPTRPDKARRL [P39030 37-50]	219	2140
RAPSPARPRRPHAS [Q9H8S7 104-117]	6640	2140
RAQRIRRPFRPILN [Q9NR60 64-77]	180	80.9
RASSPKRPGPWSEP [P08922 650-663]	48.7	66.3
RAVDLRRPLLHELL [Q9NXT9 123-136]	114	67.7
RAWIPGKPPSPPRG [Q14069 9-23]	1950	4770
RSSFPVRPPTASTI [Q9NPY2 259-273]	167	3140
RSVRPSRPPRGFQP [O43184 749-763]	12400	13300
RSWVLRRPMLAAAG [P36776 15-28]	19	412
RDAFLKRPISNKYM [Q9H278 225-238]	34.7	254
